Patent publication US20240262923A1 (Sanofi, published 2024)
Read-outs that look alike come from different tables or passages of the source. Blank lines part the entries; values can stand above or below the binder they belong to.

Legend:
[1] = biological target: T1, cynomolgus monkey 4-1BB (SPR analyte) (cynomolgus monkey, UniProt A9YYE7 24-186); test: SPR, KD on cy4-1BB against KD on h4-1BB
T1 construct: also called cy4-1BB
T1 sequence: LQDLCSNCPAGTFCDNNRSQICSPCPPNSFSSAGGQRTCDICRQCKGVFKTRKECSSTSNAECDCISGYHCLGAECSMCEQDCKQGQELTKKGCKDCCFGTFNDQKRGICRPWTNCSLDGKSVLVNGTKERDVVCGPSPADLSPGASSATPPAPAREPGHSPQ

[2] = biological target: T2, cynomolgus monkey 4-1BB expressed on 300.19 pre-B cells (cynomolgus monkey, UniProt A9YYE7 24-254); test: flow cytometry on transfected 300.19 pre-B cells
T2 construct: whole, on cells; also called cy4-1BB; Pre-B cy4-1BB

[3] = biological target: T3, human 4-1BB expressed on cells (300.19 pre-B cells, Jurkat NF-κB-luc2P cells, primary T-cells) (human, UniProt Q07011 24-255); test: flow cytometry on transfected 300.19 pre-B cells
T3 construct: also called h4-1BB; Pre-B h4-1BB

[4] = biological target: T4, human PD-1 expressed on cells (300.19 pre-B cells, PD-1 NFAT-luc2 Jurkat cells, primary T-cells) (human, UniProt Q15116 25-288); test: flow cytometry on transfected 300.19 pre-B cells
T4 construct: GenBank NP 005009.2 printed; also called hPD-1; Pre-B hPD-1

[5] = biological target: T5, cynomolgus monkey PD-1 expressed on 300.19 pre-B cells (cynomolgus monkey, UniProt B0LAJ3 25-288); test: flow cytometry on transfected 300.19 pre-B cells
T5 construct: also called cyPD-1; Pre-B cyPD-1

[6] = biological target: T3, human 4-1BB expressed on cells (300.19 …); test: flow cytometry on Jurkat reporter cells
[7] = biological target: T4, human PD-1 expressed on cells (300.19 …); test: flow cytometry on Jurkat reporter cells
[8] = biological target: T6, cynomolgus monkey PD-1 (SPR analyte) (cynomolgus monkey, UniProt B0LAJ3 25-170); test: SPR (Biacore 8K), binder captured on anti-Fc chip, target as analyte, 1:1 model
T6 construct: also called cyPD-1

human PD-1 (SPR analyte) [9] = biological target: T7, human PD-1 (SPR analyte) (human, UniProt Q15116 25-167, limits assumed); test: as above
T7 construct: Soluble analyte in SPR; also called hPD-1

[10] = biological target: T1, cynomolgus monkey 4-1BB (SPR analyte); test: as above
[11] = biological target: T8, human 4-1BB (SPR analyte) (human, UniProt Q07011 24-186); test: as above
T8 construct: also called h4-1BB

[12] = biological target: T8, human 4-1BB (SPR analyte); test: as above; remark: listed apart in the source
human PD-1 (SPR analyte) [13] = biological target: T7, human PD-1 (SPR analyte); test: as above; remark: listed apart in the source
[14] = biological target: T3, human 4-1BB expressed on cells (300.19 …); test: cell-based or functional assay
[15] = biological target: T4, human PD-1 expressed on cells (300.19 …); test: cell-based or functional assay
[16] = biological target: T6, cynomolgus monkey PD-1 (SPR analyte); test: SPR, KD on cyPD-1 against KD on hPD-1
[17] = biological target: T4, human PD-1 expressed on cells (300.19 …); test: flow cytometry on anti-CD3-stimulated primary human T-cells
[18] = biological target: T9, PD-1 in the PD-1/PD-L1 interaction assay (human, UniProt Q15116 25-167, limits assumed); test: PD-1/PD-L1 interaction assay, Relative EC50, IgG1 LALA
[19] = biological target: T9, PD-1 in the PD-1/PD-L1 interaction assay; test: PD-1/PD-L1 interaction assay, EC50 of Fab against IgG1 LALA
[20] = biological target: T9, PD-1 in the PD-1/PD-L1 interaction assay; test: PD-1/PD-L1 interaction assay, Relative EC50, Fab

T4 sequence (Q15116 25-288 limits assumed): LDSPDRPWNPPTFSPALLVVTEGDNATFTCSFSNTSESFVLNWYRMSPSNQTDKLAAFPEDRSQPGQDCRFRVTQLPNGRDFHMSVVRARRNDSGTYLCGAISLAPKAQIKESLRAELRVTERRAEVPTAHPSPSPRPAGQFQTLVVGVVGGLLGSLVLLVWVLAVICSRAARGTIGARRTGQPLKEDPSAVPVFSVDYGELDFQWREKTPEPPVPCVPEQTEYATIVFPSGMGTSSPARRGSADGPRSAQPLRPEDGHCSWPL
T3 sequence (Q07011 24-255 limits assumed): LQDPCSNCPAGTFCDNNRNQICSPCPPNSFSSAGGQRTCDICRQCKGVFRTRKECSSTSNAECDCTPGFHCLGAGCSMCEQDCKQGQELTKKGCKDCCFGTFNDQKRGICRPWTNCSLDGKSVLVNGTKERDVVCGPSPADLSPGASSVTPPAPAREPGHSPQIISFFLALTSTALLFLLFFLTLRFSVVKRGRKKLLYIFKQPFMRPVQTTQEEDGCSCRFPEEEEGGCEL
T7 sequence (Q15116 25-167 limits assumed): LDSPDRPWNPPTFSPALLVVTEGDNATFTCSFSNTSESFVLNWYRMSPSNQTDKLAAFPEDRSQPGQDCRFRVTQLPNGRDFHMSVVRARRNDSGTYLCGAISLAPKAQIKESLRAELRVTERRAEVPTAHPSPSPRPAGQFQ
T9 sequence (Q15116 25-167 limits assumed): as above
T5 sequence (B0LAJ3 entry or part of it limits assumed): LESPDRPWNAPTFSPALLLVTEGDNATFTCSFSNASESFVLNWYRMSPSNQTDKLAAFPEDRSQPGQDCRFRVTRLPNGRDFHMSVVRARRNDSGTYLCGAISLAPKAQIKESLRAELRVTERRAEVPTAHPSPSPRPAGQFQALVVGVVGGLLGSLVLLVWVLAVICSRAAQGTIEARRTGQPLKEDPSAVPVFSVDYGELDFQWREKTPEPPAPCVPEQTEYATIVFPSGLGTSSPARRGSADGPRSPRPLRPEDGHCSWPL
T6 sequence (B0LAJ3 entry or part of it limits assumed): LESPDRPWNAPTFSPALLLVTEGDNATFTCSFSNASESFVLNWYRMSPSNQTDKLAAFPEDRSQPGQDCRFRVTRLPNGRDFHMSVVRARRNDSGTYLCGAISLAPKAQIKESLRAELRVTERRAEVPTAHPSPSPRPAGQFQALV

- Ratio KD cyno/human [1]: 2.1 fold
- EC50 [2]: 0.312 nM
- EC50 [3]: 0.299 nM
- EC50 [4]: 3.69 nM
- Emax [4]: 3750 MFI
- EC50 [5]: 7.77 nM
- Emax [5]: 13800 MFI
- EC50 [6]: 0.191 nM
- EC50 [7]: 12.3 nM
- Emax [7]: 321 MFI
- Kd [8]: 18.2 nM
- Kd (human PD-1 (SPR analyte) [9]): 7.05 nM
- Kd [10]: 25.1 nM
- Kd [11]: 11.8 nM
- Kd [12]: 7.82 nM
- Kd (human PD-1 (SPR analyte) [13]): 16 nM
- EC50 (nM) 4-1BB reporter assay [14]: 0.1 nM
- IC50 (nM) PD-1 reporter assay [15]: 6.7 nM
- Ratio KD cyno/human [16]: 2.6 fold
B1: Construct #3 (anti-4-1BB/anti-PD-1 bispecific binding molecule) (bispecific antibody, IgG1)
heavy: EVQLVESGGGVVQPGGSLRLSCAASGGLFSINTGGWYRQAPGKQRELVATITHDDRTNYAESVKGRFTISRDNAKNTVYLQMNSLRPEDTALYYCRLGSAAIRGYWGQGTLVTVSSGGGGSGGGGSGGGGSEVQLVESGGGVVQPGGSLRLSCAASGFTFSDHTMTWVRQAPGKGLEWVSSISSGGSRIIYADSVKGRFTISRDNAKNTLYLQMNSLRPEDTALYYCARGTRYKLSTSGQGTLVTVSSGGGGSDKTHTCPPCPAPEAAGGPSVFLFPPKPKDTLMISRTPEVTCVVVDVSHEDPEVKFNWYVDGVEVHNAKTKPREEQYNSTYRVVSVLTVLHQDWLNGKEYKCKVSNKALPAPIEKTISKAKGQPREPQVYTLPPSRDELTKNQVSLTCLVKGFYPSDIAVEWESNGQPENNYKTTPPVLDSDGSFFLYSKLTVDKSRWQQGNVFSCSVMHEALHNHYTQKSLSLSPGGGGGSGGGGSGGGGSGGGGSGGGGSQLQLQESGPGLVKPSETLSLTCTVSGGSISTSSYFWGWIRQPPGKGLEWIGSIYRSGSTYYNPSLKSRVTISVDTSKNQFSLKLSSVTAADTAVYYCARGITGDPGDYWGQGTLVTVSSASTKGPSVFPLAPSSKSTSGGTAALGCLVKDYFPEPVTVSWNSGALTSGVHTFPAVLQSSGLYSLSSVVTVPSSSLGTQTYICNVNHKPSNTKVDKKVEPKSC
light: EIVLTQSPATLSLSPGERATLSCGASQSVSINFLAWYQQKPGLAPRLLIYEASSRATGIPDRFSGSGSGTDFTLTISRLEPEDFAVYYCQQYGSSPYTFGQGTKLEIKRTVAAPSVFIFPPSDEQLKSGTASVVCLLNNFYPREAKVQWKVDNALQSGNSQESVTEQDSKDSTYSLSSTLTLSKADYEKHKVYACEVTHQGLSSPVTKSFNRGEC
notes: also called Original Construct #3

- binding result [2]: no binding
- binding result [3]: no binding
- EC50 [4]: 0.284 nM
- Emax [4]: 6240 MFI
- EC50 [5]: 0.417 nM
- Emax [5]: 17700 MFI
- EC50 [17]: 0.205 nM
- EC50 [18]: 0.278 nM
- EC50 [7]: 0.278 nM
- Emax [7]: 280 MFI
- IC50 (nM) PD-1 reporter assay [15]: 2.8 nM
B2: anti-PD-1 antibody clone T5 (IgG1 LALA) (antibody, V domains shown)
VH: QLQLQESGPGLVKPSETLSLTCTVSGGSISTSSYFWGWIRQPPGKGLEWIGSIYRSGSTYYNPSLKSRVTISVDTSKNQFSLKLSSVTAADTAVYYCARGITGDPGDYWGQGTLVTVSS
VL: EIVLTQSPATLSLSPGERATLSCGASQSVSINFLAWYQQKPGLAPRLLIYEASSRATGIPDRFSGSGSGTDFTLTISRLEPEDFAVYYCQQYGSSPYTFGQGTKLEIK

- Ratio Fab:IgG1 [19]: 176 fold
- EC50 [20]: 48.8 nM
B3: anti-PD-1 antibody clone T5, Fab format (Fab, V domains shown)
VH: B2 VH
VL: B2 VL
